Source: patent US20020004209A1, “Use of SLIM3 for binding to molecules” (Schering Aktiengesellschaft Patents, priority 1999, published 2002)

Key:
co-activator RIP140 = target: T1, co-activator RIP140 (Homo sapiens, UniProt P48552); assay: GST-protein-interaction test; type: binding; details: in vitro
T1 sequence (P48552 1-1158): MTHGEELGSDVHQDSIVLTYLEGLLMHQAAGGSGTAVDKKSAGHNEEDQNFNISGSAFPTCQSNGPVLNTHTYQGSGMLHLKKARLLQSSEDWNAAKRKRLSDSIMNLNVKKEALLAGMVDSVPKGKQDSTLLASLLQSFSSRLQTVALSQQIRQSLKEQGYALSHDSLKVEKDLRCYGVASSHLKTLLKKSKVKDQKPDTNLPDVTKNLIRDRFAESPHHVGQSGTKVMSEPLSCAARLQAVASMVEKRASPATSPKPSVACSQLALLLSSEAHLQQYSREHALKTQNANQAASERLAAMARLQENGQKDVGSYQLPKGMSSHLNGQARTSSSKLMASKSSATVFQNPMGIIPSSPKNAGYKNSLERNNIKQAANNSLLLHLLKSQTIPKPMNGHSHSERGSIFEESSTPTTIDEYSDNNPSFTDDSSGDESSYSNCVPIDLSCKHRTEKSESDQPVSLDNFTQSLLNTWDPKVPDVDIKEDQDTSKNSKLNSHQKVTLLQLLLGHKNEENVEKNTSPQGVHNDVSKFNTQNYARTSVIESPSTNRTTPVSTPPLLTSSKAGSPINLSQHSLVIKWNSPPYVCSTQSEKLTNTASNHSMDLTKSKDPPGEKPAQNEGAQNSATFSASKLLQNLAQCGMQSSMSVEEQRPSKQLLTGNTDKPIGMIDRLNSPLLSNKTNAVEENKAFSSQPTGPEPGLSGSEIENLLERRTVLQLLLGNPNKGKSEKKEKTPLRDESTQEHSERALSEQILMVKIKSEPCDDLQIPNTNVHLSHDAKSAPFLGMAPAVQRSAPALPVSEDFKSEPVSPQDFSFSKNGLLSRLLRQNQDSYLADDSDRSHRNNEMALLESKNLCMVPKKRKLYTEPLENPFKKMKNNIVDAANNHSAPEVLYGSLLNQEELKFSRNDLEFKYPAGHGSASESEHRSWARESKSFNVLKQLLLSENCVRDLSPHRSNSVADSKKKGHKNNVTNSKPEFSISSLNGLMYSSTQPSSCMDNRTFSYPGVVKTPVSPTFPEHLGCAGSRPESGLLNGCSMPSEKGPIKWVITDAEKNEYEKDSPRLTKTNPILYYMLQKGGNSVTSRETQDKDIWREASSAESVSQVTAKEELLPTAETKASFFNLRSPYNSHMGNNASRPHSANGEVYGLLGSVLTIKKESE
T1 sequence (Q14192 1-279 partner): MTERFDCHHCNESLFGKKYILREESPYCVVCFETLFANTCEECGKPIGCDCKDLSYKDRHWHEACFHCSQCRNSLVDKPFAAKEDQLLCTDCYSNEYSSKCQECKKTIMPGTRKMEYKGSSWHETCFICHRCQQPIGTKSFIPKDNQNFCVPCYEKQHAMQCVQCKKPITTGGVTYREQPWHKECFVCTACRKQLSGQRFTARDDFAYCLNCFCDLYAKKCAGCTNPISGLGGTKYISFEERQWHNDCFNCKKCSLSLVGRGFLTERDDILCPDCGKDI

co-activator AIB/ACTR = co-activator AIB/ACTR (Homo sapiens, UniProt Q9Y6Q9); assay: GST-protein-interaction test; type: binding; details: in vitro
androgen receptor = target: T2, androgen receptor (Homo sapiens, UniProt P10275); assay: androgen receptor co-activation, MMTV-LUC or proteasin-Luc reporter, transient transfection; type: cell-based; details: 293 cells; with R1881; increasing amount of SLIM3-expression plasmid
T2 construct: expressed in transfected cells; host or cells: 293 cells
T2 sequence (P10275 1-920): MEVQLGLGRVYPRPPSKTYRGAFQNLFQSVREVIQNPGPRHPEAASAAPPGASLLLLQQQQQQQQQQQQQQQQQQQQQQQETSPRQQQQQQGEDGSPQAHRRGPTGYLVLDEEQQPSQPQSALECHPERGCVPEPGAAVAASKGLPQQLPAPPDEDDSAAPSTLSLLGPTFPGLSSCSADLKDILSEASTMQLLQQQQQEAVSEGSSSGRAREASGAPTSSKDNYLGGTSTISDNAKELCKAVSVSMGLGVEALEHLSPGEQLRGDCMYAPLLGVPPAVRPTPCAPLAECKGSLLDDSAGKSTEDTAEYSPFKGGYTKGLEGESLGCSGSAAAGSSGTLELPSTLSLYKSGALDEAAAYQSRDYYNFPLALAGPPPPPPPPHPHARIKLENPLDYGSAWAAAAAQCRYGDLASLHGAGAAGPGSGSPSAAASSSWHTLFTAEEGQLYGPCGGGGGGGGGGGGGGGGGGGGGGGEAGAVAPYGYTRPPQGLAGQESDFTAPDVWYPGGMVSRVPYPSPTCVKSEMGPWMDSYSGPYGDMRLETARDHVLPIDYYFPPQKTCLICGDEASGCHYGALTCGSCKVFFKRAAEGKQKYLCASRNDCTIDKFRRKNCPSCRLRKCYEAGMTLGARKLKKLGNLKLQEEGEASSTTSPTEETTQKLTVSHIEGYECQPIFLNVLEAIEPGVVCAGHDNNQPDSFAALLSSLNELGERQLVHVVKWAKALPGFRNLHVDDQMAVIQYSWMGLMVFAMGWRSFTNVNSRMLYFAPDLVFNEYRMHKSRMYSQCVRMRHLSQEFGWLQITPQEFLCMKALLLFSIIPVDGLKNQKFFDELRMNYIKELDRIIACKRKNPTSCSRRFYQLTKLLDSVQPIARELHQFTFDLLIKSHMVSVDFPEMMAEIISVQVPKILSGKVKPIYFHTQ
T2 sequence (Q14192 1-279 partner): T1 sequence (Q14192 1-279 partner)

co-activator AIB/ACTR, sequence (Q9Y6Q9 whole entry, one chain of several): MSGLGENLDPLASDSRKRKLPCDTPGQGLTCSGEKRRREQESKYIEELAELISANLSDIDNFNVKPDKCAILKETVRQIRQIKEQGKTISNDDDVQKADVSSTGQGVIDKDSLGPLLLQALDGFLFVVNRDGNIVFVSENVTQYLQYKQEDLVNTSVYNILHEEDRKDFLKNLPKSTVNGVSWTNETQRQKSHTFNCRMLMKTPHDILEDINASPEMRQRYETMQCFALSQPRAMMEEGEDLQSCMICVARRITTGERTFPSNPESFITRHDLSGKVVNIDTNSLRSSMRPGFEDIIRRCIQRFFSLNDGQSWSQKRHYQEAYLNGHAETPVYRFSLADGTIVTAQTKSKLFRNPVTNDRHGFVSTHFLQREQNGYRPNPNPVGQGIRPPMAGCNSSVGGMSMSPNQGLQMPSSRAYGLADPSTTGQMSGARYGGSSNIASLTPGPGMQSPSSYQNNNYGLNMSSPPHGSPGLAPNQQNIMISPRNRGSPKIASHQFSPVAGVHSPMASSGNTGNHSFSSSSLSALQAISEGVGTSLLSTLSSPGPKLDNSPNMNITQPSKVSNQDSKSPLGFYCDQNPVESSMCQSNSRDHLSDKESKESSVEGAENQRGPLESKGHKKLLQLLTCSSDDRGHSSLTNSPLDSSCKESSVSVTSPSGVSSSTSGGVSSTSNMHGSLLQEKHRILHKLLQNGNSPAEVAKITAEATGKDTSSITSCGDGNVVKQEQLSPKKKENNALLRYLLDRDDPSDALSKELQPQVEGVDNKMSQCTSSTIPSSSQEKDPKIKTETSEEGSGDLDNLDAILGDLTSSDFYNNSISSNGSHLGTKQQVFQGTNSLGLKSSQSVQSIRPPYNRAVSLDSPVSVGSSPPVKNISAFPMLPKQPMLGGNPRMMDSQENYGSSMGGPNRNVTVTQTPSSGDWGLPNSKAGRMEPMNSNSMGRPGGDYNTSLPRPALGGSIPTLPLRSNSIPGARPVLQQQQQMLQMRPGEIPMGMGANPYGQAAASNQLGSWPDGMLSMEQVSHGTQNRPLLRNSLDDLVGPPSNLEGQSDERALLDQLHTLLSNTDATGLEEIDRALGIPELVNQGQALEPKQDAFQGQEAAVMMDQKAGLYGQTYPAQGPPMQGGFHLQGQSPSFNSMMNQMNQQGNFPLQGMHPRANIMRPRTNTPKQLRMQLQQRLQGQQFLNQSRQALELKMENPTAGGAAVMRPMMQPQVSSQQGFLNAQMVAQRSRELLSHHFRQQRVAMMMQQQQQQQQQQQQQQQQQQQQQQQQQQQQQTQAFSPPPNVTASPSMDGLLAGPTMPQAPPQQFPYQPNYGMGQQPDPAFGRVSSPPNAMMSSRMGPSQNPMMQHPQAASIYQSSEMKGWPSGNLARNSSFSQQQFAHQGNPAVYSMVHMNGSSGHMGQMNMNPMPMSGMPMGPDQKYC

For “SLIM3: LIM-domain protein of 279 amino acids, co-activator for nuclear receptors AR and ERβ”, the interaction with co-activator (co-activator RIP140) was “interacts”, the interaction with co-activator (co-activator AIB/ACTR) was “interacts” and the “additional super-induction of the reporter gene” value (androgen receptor) was “three-fold to five-fold”.
